From the Human Domainome abundance scans (Beltran et al. 2025)
± gives the uncertainty stated by the source.

B1: Transcription intermediary factor 1-beta, residues 620 to 671; numbered along this chain, Q13263 (parent)
chain: TLDDSATICRVCQKPGDLVMCNQCEFCFHLDCHLPALQDVPGEEWSCSLCHV
B2: Tudor domain-containing protein 3, residues 554 to 611; numbered along this chain, Q9H7E2 (parent)
chain: KMWKPGDECFALYWEDNKFYRAEVEALHSSGMTAVVKFIDYGNYEEVLLSNIKPIQTE

Variants of: B1
Assay: abundance fitness (aPCA) (normalised: wild type 0, dead -1); higher = more abundant; growth selection in yeast, the domain comes from the species named
Details: Homo sapiens

Row | Variant | abundance fitness
1 | L2V | -0.13 ± 0.1
2 | L2W | -0.323 ± 0.13
3 | L2D | -0.078 ± 0.17
4 | L2C | -0.198 ± 0.18
5 | L2H | -0.678 ± 0.4
6 | L2K | -0.056 ± 0.33
7 | L2Y | 0.045 ± 0.17
8 | L2P | 0.179 ± 0.27
9 | L2N | 0.017 ± 0.25
10 | L2R | -0.252 ± 0.12
11 | L2F | -0.168 ± 0.15
12 | L2E | 0.021 ± 0.17
13 | L2M | 0.021 ± 0.17
14 | L2Q | 0.016 ± 0.14
15 | L2G | -0.604 ± 0.16
16 | L2I | -0.112 ± 0.19
17 | L2S | -0.004 ± 0.14
18 | D4L | 0.135 ± 0.081
19 | D4K | 0.284 ± 0.16
20 | D4C | 0.201 ± 0.1
21 | D4M | 0.083 ± 0.096
22 | D4F | -0.19 ± 0.15
23 | D4A | -0.141 ± 0.1
24 | D4G | -0.219 ± 0.082
25 | D4H | -0.035 ± 0.26
26 | D3H | -0.205 ± 0.15
27 | D3W | -0.302 ± 0.12

Row | Variant | abundance fitness
28 | D3G | -0.411 ± 0.099
29 | D3R | -0.294 ± 0.096
30 | D3L | -0.242 ± 0.11
31 | D3S | -0.223 ± 0.11
32 | D3C | -0.534 ± 0.17
33 | D3I | -0.292 ± 0.2
34 | D3V | -0.487 ± 0.1
35 | D3T | -0.661 ± 0.15
36 | D3Q | -0.603 ± 0.18
37 | D3K | 0.027 ± 0.2
38 | D3E | 0.13 ± 0.13
39 | D3N | -0.112 ± 0.14
40 | D3M | -0.529 ± 0.16
41 | D3F | 0.053 ± 0.12
42 | D3A | -0.723 ± 0.14
43 | T1S | -0.096 ± 0.17
44 | T1R | -0.495 ± 0.23
45 | T1E | -0.11 ± 0.45
46 | T1K | 0.109 ± 0.24
47 | T1A | 0.314 ± 0.28
48 | T1H | -0.593 ± 0.34
49 | T1V | -0.043 ± 0.27
50 | T1W | -0.8 ± 0.33
51 | T1M | -0.363 ± 0.32
52 | T1N | 0.184 ± 0.36
53 | T1G | -0.602 ± 0.27
54 | T1D | 0.178 ± 0.35

Variants of: B2
Assay: as above
Details: Homo sapiens

Row | Variant | abundance fitness
55 | I55A | -0.028 ± 0.079
56 | I55V | -0.039 ± 0.063
57 | I55M | -0.096 ± 0.095
58 | I55E | -0.558 ± 0.099
59 | I55C | -0.041 ± 0.074
60 | I55K | -0.139 ± 0.089
61 | I55F | -0.1 ± 0.13
62 | I55R | -0.068 ± 0.055
63 | I55T | -0.18 ± 0.097
64 | I55G | -0.351 ± 0.051
65 | I55W | -0.372 ± 0.078
66 | I55Y | -0.132 ± 0.11
67 | I55P | -0.084 ± 0.11
68 | I55D | -0.415 ± 0.1
69 | I55S | -0.192 ± 0.067
70 | I55N | -0.265 ± 0.12
71 | E45R | -0.107 ± 0.053
72 | E45K | -0.43 ± 0.1
73 | E45F | -0.768 ± 0.17
74 | E45M | -0.586 ± 0.15
75 | E45T | -0.398 ± 0.098
76 | E45G | -0.101 ± 0.054
77 | E45Y | -0.38 ± 0.15

Row | Variant | abundance fitness
78 | E45L | -0.53 ± 0.08
79 | E45N | -0.368 ± 0.17
80 | E45P | -1.02 ± 0.19
81 | E45W | -0.788 ± 0.089
82 | E45I | -0.975 ± 0.21
83 | E45C | -0.262 ± 0.079
84 | E45H | -0.333 ± 0.13
85 | E45Q | -0.13 ± 0.096
86 | E45V | -0.392 ± 0.072
87 | E45A | -0.041 ± 0.066
88 | L49M | -0.032 ± 0.081
89 | L49R | -0.708 ± 0.069
90 | L49E | -0.924 ± 0.11
91 | L49K | -0.774 ± 0.13
92 | L49V | -0.046 ± 0.058
93 | L49C | -0.243 ± 0.092
94 | L49G | -0.954 ± 0.079
95 | L49S | -0.645 ± 0.07
96 | L49Y | -0.464 ± 0.1
97 | L49F | -0.602 ± 0.14
98 | L49N | -1.05 ± 0.19
99 | L49I | -0.026 ± 0.085
100 | L49P | -0.922 ± 0.14

Row | Variant | abundance fitness
101 | L49D | -0.886 ± 0.12
102 | L49W | -0.629 ± 0.1
103 | L49Q | -0.583 ± 0.11
104 | Y44H | -0.13 ± 0.1
105 | Y44M | 0.09 ± 0.12
106 | Y44N | -0.111 ± 0.11
107 | Y44D | -0.468 ± 0.089
108 | Y44G | -0.767 ± 0.062
109 | Y44E | 0.012 ± 0.092
110 | Y44L | -0.05 ± 0.077
111 | Y44S | 0.135 ± 0.062
112 | Y44T | 0.039 ± 0.081
113 | Y44F | 0.006 ± 0.13
114 | Y44A | -0.065 ± 0.068
115 | Y44V | 0.103 ± 0.07
116 | Y44R | 0.171 ± 0.056
117 | Y44Q | -0.206 ± 0.12
118 | Y44K | 0.157 ± 0.088
119 | Y44P | -0.473 ± 0.096
120 | Y44C | 0.097 ± 0.079
121 | Y44I | -0.015 ± 0.13
122 | P54C | -0.429 ± 0.093
123 | P54F | -0.701 ± 0.15

Row | Variant | abundance fitness
124 | P54Y | -0.565 ± 0.14
125 | P54A | -0.162 ± 0.07
126 | P54H | -0.181 ± 0.12
127 | P54S | -0.158 ± 0.063
128 | P54K | -0.138 ± 0.11
129 | P54I | -0.5 ± 0.12
130 | P54Q | -0.188 ± 0.097
131 | P54R | -0.17 ± 0.054
132 | P54W | -0.767 ± 0.085
133 | P54T | -0.125 ± 0.093
134 | P54D | -0.229 ± 0.1
135 | P54L | -0.36 ± 0.065
136 | P54E | -0.006 ± 0.11
137 | P54G | -0.332 ± 0.057
138 | P54N | -0.41 ± 0.13
139 | P54V | -0.298 ± 0.077
140 | N51W | -0.271 ± 0.077
141 | N51I | -0.837 ± 0.13
142 | N51S | -0.205 ± 0.064
143 | N51F | -1.02 ± 0.19
144 | N51D | -0.097 ± 0.1
145 | N51K | -0.418 ± 0.076
146 | N51L | -0.727 ± 0.071

Row | Variant | abundance fitness
147 | N51P | -1.02 ± 0.14
148 | N51M | -0.364 ± 0.075
149 | N51R | -0.485 ± 0.06
150 | N51A | -0.308 ± 0.065
151 | N51Q | -0.036 ± 0.09
152 | N51V | -0.925 ± 0.083
153 | N51H | 0.055 ± 0.084
154 | N51C | -0.205 ± 0.11
155 | N51G | -0.462 ± 0.055
156 | N51Y | -0.678 ± 0.16
157 | N51E | -0.272 ± 0.069
158 | N51T | -0.529 ± 0.077
159 | V47A | -0.815 ± 0.097
160 | V47W | -0.846 ± 0.071
161 | V47G | -0.873 ± 0.068
162 | V47P | -0.893 ± 0.11
163 | V47D | -0.729 ± 0.36
164 | V47R | -0.937 ± 0.073
165 | V47C | -0.296 ± 0.11
166 | V47Q | -0.714 ± 0.1
167 | V47Y | -0.886 ± 0.23
